For test [1], the target named is T1, mouse class II IA^k, purified from CH12 cells (mouse), P01910.
T1 chain 1: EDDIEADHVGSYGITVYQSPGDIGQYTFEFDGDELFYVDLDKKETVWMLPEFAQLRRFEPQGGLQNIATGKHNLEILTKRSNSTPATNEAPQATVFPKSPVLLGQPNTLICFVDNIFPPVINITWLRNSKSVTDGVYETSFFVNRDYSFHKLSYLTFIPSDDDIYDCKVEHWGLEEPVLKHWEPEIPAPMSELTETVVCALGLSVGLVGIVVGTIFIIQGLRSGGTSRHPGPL
T1 chain 2: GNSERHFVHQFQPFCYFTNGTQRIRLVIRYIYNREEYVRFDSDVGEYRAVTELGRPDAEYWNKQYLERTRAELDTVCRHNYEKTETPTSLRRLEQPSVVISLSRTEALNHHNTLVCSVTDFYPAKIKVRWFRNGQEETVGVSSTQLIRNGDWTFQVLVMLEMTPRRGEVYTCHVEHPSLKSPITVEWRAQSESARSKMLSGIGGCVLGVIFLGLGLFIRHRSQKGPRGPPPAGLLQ
The experiment in a line: assay standard, average IC50.

Test [2] addresses HLA-DR1 (DRB1*0101), purified from LG2 cells (human). The test is described as follows: 125I-peptide inhibition, purified class II.
The target of test [3] is T2, HLA-DR2w2a (DRB5*0101), purified from L416.3 transfected fibroblasts (human).
T2 chain 1: not shown
T2 chain 2: not shown
The experiment in a line: 125I-peptide inhibition, purified class II.

For test [4], the target named is T3, HLA-DR2w2b (DRB1*1501), purified from 3107 cells (human).
T3 chain 1: not shown
T3 chain 2: not shown
The test is described as follows: 125I-peptide inhibition, purified class II.

The target of test [5] is T4, HLA-DR3 (DRB1*0301), purified from MAT cells (human).
T4 chain 1: not shown
T4 chain 2: not shown
The experiment in a line: 125I-peptide inhibition, purified class II.

In test [6] the target is T5, HLA-DR4w4 (DRB1*0401), purified from PREISS cells (human).
T5 chain 1: not shown
T5 chain 2: not shown
The test is described as follows: 125I-peptide inhibition, purified class II.

Test [7] concerns the target T6, HLA-DR52a (DRB3*0101), purified from MAT cells or TR81.19 transfected fibroblasts (human).
T6 chain 1: not shown
T6 chain 2: not shown
The test is described as follows: 125I-peptide inhibition, purified class II.

In test [8] the target is T7, HLA-DR7 (DRB1*0701), purified from PITOUT cells (human).
T7 chain 1: not shown
T7 chain 2: not shown
The test is described as follows: 125I-peptide inhibition, purified class II.

Test [9] addresses T8, HLA-DRw53 (DRB4*0101), purified from L257.6 transfected fibroblasts (human).
T8 chain 1: not shown
T8 chain 2: not shown
The experiment in a line: 125I-peptide inhibition, purified class II.

Test [10] deals with T9, mouse class II IA^b, purified from DB27.4 cells (mouse), P14434.
T9 chain 1: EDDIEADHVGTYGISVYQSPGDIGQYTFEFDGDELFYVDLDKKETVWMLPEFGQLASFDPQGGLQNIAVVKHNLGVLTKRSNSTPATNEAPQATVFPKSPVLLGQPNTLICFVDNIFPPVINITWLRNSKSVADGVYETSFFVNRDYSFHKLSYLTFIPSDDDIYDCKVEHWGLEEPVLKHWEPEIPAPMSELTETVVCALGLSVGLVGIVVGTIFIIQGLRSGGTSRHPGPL
T9 chain 2: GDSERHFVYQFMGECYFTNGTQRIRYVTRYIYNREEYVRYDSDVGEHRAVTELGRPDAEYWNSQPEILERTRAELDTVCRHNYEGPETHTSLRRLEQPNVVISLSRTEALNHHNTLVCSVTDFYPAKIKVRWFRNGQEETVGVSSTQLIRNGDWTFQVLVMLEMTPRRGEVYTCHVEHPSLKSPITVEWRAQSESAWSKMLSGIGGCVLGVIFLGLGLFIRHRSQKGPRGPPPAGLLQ
The experiment in a line: 125I-peptide inhibition, purified class II.

Test [11] has as its target T10, mouse class II IA^d, purified from A20 cells (mouse), P04228.
T10 chain 1: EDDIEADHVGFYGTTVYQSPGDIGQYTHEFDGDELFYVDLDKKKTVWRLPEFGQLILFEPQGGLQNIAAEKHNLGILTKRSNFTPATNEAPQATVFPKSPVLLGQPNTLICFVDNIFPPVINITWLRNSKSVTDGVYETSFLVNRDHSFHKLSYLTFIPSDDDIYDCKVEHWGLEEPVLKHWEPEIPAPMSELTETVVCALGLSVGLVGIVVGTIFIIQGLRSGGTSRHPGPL
T10 chain 2: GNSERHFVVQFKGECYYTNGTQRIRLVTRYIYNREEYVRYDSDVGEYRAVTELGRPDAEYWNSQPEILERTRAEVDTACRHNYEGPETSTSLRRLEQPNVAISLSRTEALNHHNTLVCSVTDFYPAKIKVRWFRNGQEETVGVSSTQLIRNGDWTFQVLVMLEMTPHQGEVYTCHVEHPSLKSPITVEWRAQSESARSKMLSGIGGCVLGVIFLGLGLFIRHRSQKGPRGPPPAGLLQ
The test is described as follows: 125I-peptide inhibition, purified class II.

Test [12] has as its target mouse class II IE^d, purified from A20 cells (mouse). The experiment in a line: 125I-peptide inhibition, purified class II.
Test [13] has as its target mouse class II IE^k, purified from CH12 cells (mouse). The test is described as follows: 125I-peptide inhibition, purified class II.
For test [14], the target named is T1, mouse class II IA^k, purified from CH12 …. The experiment in a line: 125I-peptide inhibition, purified class II.
Test [15] deals with mouse class II IE^d, purified from A20 cells (mouse). The test is described as follows: assay standard, average IC50.
In test [16] the target is T10, mouse class II IA^d, purified from A20 …. The experiment in a line: assay standard, average IC50.

Non-standard residues stand in square brackets, D forms with d. No end group written: not given here. Cha = N[C@@H](CC1CCCCC1)C(=O)O

In general, IC50 refers to the point on the concentration scale where inhibition reaches its midpoint.

Sequence of mouse class II IE^d, purified from A20 cells (mouse) (P01904 26-255, chain 1 of 2): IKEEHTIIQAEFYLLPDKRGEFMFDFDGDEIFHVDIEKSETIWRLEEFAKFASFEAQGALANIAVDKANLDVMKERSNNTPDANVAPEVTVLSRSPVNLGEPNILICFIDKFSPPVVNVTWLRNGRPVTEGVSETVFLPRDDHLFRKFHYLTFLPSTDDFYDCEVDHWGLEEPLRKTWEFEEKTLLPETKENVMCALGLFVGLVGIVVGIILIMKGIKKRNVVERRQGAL
Sequence of mouse class II IE^d, purified from A20 cells (mouse) (P01915 32-264, chain 2 of 2, further chain): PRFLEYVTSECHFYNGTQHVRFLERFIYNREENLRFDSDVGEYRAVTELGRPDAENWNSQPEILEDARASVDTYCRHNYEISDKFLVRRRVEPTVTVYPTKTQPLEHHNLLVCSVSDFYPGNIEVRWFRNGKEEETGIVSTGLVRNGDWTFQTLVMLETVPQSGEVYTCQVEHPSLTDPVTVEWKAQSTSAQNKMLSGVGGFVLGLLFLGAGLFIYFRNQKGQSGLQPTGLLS

In the case of YNTDGSTDYGILQINSR (modifications not checked) [HEL 46-61 (assay standard, with N-terminal Y)], the IC50 in test [1] was determined as 20 nM.

For [dA]A[Cha]VAAATLKAA[dA] [906.09], the IC50 in [2] came out at 0.61 nM; in test [3] it was 2 nM; in test [4], 14 nM; in [5], 280 nM; in [6] it was 2.6 nM; in test [7] it was 588 nM. Besides, the IC50 in test [8] was determined as 76 nM; in [9], 93 nM; in test [10], 31 nM; in test [11] it was 38 nM; in test [12] it was 31 nM; in [13], 11 nM.

Take YLEDARRLKAIYEKKK (modifications not checked) [lambda rep 12-26]: the IC50 in test [10] is greater than 10000 nM; in test [11] it was 1100 nM; in [14], greater than 10000 nM; in test [12] it was 170 nM; in [15], 170 nM.

With ISQAVHAAHAEINE (modifications not checked) [Ova 323-336], the IC50 in test [11] worked out at 110 nM; in test [14], 1000 nM; in [13] it was 700 nM; in [16], 110 nM.
